For orientation: IC50 means the concentration at which inhibition is half-maximal. A higher IC50 goes with weaker potency in that assay. What is called Kd is the equilibrium constant for the complex coming apart.

Results on 38 molecules are retold here after patent US20190177366A1 (published 2019).

Bridge positions count the residues as written; N and C are the ends. Square brackets hold non-standard residues; d marks the D form. * marks the point of attachment. 5FAM = O=C1OC2(c3ccc(O)cc3Oc3cc(O)ccc32)c2ccc(C(=O)*)cc21; Ach = 2-aminocyclohexane-1-carboxylic acid; hArg = N=C(N)NCCCC[C@H](N)C(=O)O; Dap = NC[C@H](N)C(=O)O; Pentanoyl = CCCCC(=O)*

The chains are these.
B1: Compound 114 (peptide)
peptide: Pentanoyl-WNLVRIGTLR-NH2
SMILES: CCCCC(=O)N[C@@H](Cc1c[nH]c2ccccc12)C(=O)N[C@@H](CC(N)=O)C(=O)N[C@@H](CC(C)C)C(=O)N[C@H](C(=O)N[C@@H](CCCNC(=N)N)C(=O)N[C@H](C(=O)NCC(=O)N[C@H](C(=O)N[C@@H](CC(C)C)C(=O)N[C@@H](CCCNC(=N)N)C(N)=O)[C@@H](C)O)[C@@H](C)CC)C(C)C
B2: Compound 112 (peptide)
peptide: Pentanoyl-WNLVRIGLTR-NH2
SMILES: CCCCC(=O)N[C@@H](Cc1c[nH]c2ccccc12)C(=O)N[C@@H](CC(N)=O)C(=O)N[C@@H](CC(C)C)C(=O)N[C@H](C(=O)N[C@@H](CCCNC(=N)N)C(=O)N[C@H](C(=O)NCC(=O)N[C@@H](CC(C)C)C(=O)N[C@H](C(=O)N[C@@H](CCCNC(=N)N)C(N)=O)[C@@H](C)O)[C@@H](C)CC)C(C)C
B3: Compound 113 (peptide)
peptide: Pentanoyl-WNLVRIGTTR-NH2
SMILES: CCCCC(=O)N[C@@H](Cc1c[nH]c2ccccc12)C(=O)N[C@@H](CC(N)=O)C(=O)N[C@@H](CC(C)C)C(=O)N[C@H](C(=O)N[C@@H](CCCNC(=N)N)C(=O)N[C@H](C(=O)NCC(=O)N[C@H](C(=O)N[C@H](C(=O)N[C@@H](CCCNC(=N)N)C(N)=O)[C@@H](C)O)[C@@H](C)O)[C@@H](C)CC)C(C)C
B4: Compound 111 (peptide)
peptide: Pentanoyl-WNLVRIGLLR-NH2
SMILES: CCCCC(=O)N[C@@H](Cc1c[nH]c2ccccc12)C(=O)N[C@@H](CC(N)=O)C(=O)N[C@@H](CC(C)C)C(=O)N[C@H](C(=O)N[C@@H](CCCNC(=N)N)C(=O)N[C@H](C(=O)NCC(=O)N[C@@H](CC(C)C)C(=O)N[C@@H](CC(C)C)C(=O)N[C@@H](CCCNC(=N)N)C(N)=O)[C@@H](C)CC)C(C)C
B5: Compound 118 (peptide)
peptide: Pentanoyl-WNLV[hArg]IGLTR-NH2
SMILES: CCCCC(=O)N[C@@H](Cc1c[nH]c2ccccc12)C(=O)N[C@@H](CC(N)=O)C(=O)N[C@@H](CC(C)C)C(=O)N[C@H](C(=O)N[C@@H](CCCCNC(=N)N)C(=O)N[C@H](C(=O)NCC(=O)N[C@@H](CC(C)C)C(=O)N[C@H](C(=O)N[C@@H](CCCNC(=N)N)C(N)=O)[C@@H](C)O)[C@@H](C)CC)C(C)C
notes: also called n-BuC(O)-WNLV(homoR)IGLTR-NH2
B6: Compound 73 (peptide)
peptide: Ac-CRLPWNLARIGLPC-NH2
modifications: disulfide 1-14
SMILES: CC[C@H](C)[C@@H]1NC(=O)[C@H](CCCNC(=N)N)NC(=O)[C@H](C)NC(=O)[C@H](CC(C)C)NC(=O)[C@H](CC(N)=O)NC(=O)[C@H](Cc2c[nH]c3ccccc23)NC(=O)[C@@H]2CCCN2C(=O)[C@H](CC(C)C)NC(=O)[C@H](CCCNC(=N)N)NC(=O)[C@@H](NC(C)=O)CSSC[C@@H](C(N)=O)NC(=O)[C@@H]2CCCN2C(=O)[C@H](CC(C)C)NC(=O)CNC1=O
B7: Compound 96 (peptide)
peptide: Ac-FCLWNLKRIGAQCWF-NH2
modifications: disulfide 2-13
SMILES: CC[C@H](C)[C@@H]1NC(=O)[C@H](CCCNC(=N)N)NC(=O)[C@H](CCCCN)NC(=O)[C@H](CC(C)C)NC(=O)[C@H](CC(N)=O)NC(=O)[C@H](Cc2c[nH]c3ccccc23)NC(=O)[C@H](CC(C)C)NC(=O)[C@@H](NC(=O)[C@H](Cc2ccccc2)NC(C)=O)CSSC[C@@H](C(=O)N[C@@H](Cc2c[nH]c3ccccc23)C(=O)N[C@@H](Cc2ccccc2)C(N)=O)NC(=O)[C@H](CCC(N)=O)NC(=O)[C@H](C)NC(=O)CNC1=O
B8: Compound 97 (peptide)
peptide: Ac-GSGCWNL[Dap]RIGSQGC-NH2
modifications: disulfide 4-15
SMILES: CC[C@H](C)[C@@H]1NC(=O)[C@H](CCCNC(=N)N)NC(=O)[C@H](CN)NC(=O)[C@H](CC(C)C)NC(=O)[C@H](CC(N)=O)NC(=O)[C@H](Cc2c[nH]c3ccccc23)NC(=O)[C@@H](NC(=O)CNC(=O)[C@H](CO)NC(=O)CNC(C)=O)CSSC[C@@H](C(N)=O)NC(=O)CNC(=O)[C@H](CCC(N)=O)NC(=O)[C@H](CO)NC(=O)CNC1=O
notes: also called Ac-GSG-CWNL(Dpr)RIGSQGC-NH2

For one experiment, the target named is T1, human PCSK9 (proprotein convertase subtilisin/kexin type 9), His-tagged, full-length (human, UniProt A8T644 31-152; Q8NBP7 153-692, limits assumed).
T1 construct: The secreted protein is the prodomain plus the catalytic/Cys-rich part (N-terminus S153) after autocleavage; also called His-PCSK9; NARC-1
T1 sequence (A8T644 31-152 limits assumed, chain 1 of 2): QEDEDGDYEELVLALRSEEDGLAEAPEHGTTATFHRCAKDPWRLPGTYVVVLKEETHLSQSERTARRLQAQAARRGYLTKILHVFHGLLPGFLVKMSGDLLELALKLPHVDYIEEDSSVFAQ
T1 sequence (A8T644 other isoform, or with tags, fused parts or gaps limits assumed, chain 2 of 2): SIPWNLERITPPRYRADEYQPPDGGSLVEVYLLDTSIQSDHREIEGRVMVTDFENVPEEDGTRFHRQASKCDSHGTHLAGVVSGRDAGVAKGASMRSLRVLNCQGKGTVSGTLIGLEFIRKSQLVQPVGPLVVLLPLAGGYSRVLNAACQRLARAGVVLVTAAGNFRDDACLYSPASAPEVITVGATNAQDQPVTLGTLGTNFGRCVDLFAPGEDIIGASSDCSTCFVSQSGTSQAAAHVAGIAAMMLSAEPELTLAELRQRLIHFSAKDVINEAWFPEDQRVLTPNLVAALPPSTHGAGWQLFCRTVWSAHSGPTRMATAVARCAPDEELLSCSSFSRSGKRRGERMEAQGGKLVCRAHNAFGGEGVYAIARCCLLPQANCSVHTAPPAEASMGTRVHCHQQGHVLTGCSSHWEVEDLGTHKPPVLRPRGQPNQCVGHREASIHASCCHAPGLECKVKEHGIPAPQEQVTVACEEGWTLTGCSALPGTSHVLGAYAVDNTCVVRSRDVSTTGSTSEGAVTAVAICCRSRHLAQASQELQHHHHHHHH
Put plainly: TR-FRET competition vs EGF(A)-Fc on His-PCSK9. Background: Time-resolved FRET reads energy transfer from a long-lived donor to a nearby acceptor.
Molecule Ac-TVFTSWEEYLDWVGSGKLWNLGRV-NH2 [Compound 1] yielded an IC50 of 0.388 µM.

In a further experiment the target is T1, human PCSK9 (proprotein convertase …). Put plainly: TR-FRET competition vs EGF(A)-Fc on His-PCSK9. This is another data set of the same source.
In the case of Ac-WNLVRIGLLR-NH2 [Compound 53], the IC50 is greater than 50 µM.
Still for that read-out and setting: as for B1, the figure is greater than 50 µM; as for B2, greater than 50 µM; as for B3, greater than 50 µM.
On the same count and under the same terms, as for Ac-PWNLVRIGL-NH2 [Compound 119], the figure is greater than 50 µM; as for Ac-MPWNLVRIGLLR-NH2 [Compound 51], greater than 50 µM.
Ac-DLMPWNLVRIGL-NH2 [Compound 47]: the IC50 is greater than 50 µM.
As for B4, the IC50 is greater than 50 µM.
For Ac-DLMPWNLVRIGLLR-NH2 [Compound 35], the IC50 is greater than 50 µM.
With Ac-DLMAWNLVRIGLLR-NH2 [Compound 42], the IC50 is greater than 50 µM.
The same measure, in the same setting: as for Ac-DLMPWALVRIGLLR-NH2 [Compound 62], the figure is greater than 50 µM; as for Ac-DLMPWNLVRIGLAR-NH2 [Compound 55], greater than 50 µM; as for Ac-DLMPWNLVAIGLLR-NH2 [Compound 59], greater than 50 µM.
For the molecule Ac-DLAPWNLVRIGLLR-NH2 [Compound 43], the IC50 is greater than 50 µM.
Still for that read-out and setting: as for Ac-DLMPWNLVRAGLLR-NH2 [Compound 58], the figure is greater than 50 µM; as for Ac-DLMPWNAVRIGLLR-NH2 [Compound 61], greater than 50 µM.
On the same count and under the same terms, the same measure for Ac-DAMPWNLVRIGLLR-NH2 [Compound 44]: greater than 50 µM; for Ac-DLMPANLVRIGLLR-NH2 [Compound 41]: greater than 50 µM.
Regarding Ac-ALMPWNLVRIGLLR-NH2 [Compound 45], the IC50 was greater than 50 µM.
On the same count and under the same terms, the same measure for Ac-DLMPWNLVRIGALR-NH2 [Compound 56]: greater than 50 µM; for Ac-DLMPWNLARIGLLR-NH2 [Compound 60]: greater than 50 µM.
Still for that read-out and setting: the same measure for Ac-DLMPWNLVRIGLLA-NH2 [Compound 54]: greater than 50 µM; for Ac-DLMPWNLVRIGLL-NH2 [Compound 46]: greater than 50 µM.
The molecule Ac-DLMPWNLVRIG-NH2 [Compound 48] showed an IC50 greater than 50 µM.
On the same count and under the same terms, the same measure for Ac-WNLVRIGL-NH2 [Compound 120]: greater than 50 µM.
Still for that read-out and setting: as for Ac-DLMPWNLVRI-NH2 [Compound 49], the figure is greater than 50 µM; as for B5, greater than 50 µM.
The same measure, in the same setting: the same measure for Ac-PWNLVRIGLLR-NH2 [Compound 52]: greater than 50 µM; for Ac-LMPWNLVRIGLLR-NH2 [Compound 50]: greater than 50 µM.

Another experiment shares this target. Briefly: SPR, SensiQ Pioneer FE, amine-coupled protein, OneStep gradient injection (Method 3). (In SPR one partner is held on a chip, and binding of the other changes the refractive index at the surface.)
Ac-WNLVRIGLLR-NH2 [Compound 53] yielded a Kd of 223 µM.
Still for that read-out and setting: as for Ac-MPWNLVRIGLLR-NH2 [Compound 51], the figure is 26.2 µM.
Turning to 5FAM-SGSGCRLPWNLQRIGLPC-NH2 (disulfide 5-18 (inferred)) [Compound 34], binding was put at a Kd of 4.47 µM.
In turn, 5FAM-SGSGCFIPWNLQRIGLLC-NH2 (disulfide 5-18 (inferred)) [Compound 33] showed a dissociation constant Kd of 6.01 µM.
Molecule Ac-CRLPWNLQRIGLPC-NH2 (disulfide 1-14 (inferred)) [Compound 32] returned a Kd of 1.3 µM.
Still for that read-out and setting: the same measure for B6: 11 µM; for Ac-CRL[Ach]WNLQRIGLPC-NH2 (disulfide 1-14) [Compound 82]: 118 µM.
With Ac-DLMPWNLVRIGLAR-NH2 [Compound 55], the Kd turned out to be 96.5 µM.
Same read-out and setting: the same measure for Ac-ALMPWNLVRIGLLR-NH2 [Compound 45]: 117 µM.
Same read-out and setting: the same measure for Ac-CFIPWNLQRIGLLC-NH2 (disulfide 1-14 (inferred)) [Compound 31]: 5.83 µM; for Ac-PWNLVRIGLLR-NH2 [Compound 52]: 17.9 µM; for Ac-LMPWNLVRIGLLR-NH2 [Compound 50]: 16.1 µM.
The molecule B7 registered an equilibrium dissociation constant (Kd) of 46.4 µM.
Still for that read-out and setting: the same measure for B8: 522 µM.
